In patent US20230144876A1 (UNIVERSITY OF KITAKYUSHU, published 2023):

Target: T1, MHC-1 (MHC class I molecules) on murine dendritic cell line DC2.4 cells (mouse, UniProt P01887 21-119; P01901 22-369)
T1 construct: whole, on cells; also called H-2Kb
T1 sequence (MHC heavy, looked up): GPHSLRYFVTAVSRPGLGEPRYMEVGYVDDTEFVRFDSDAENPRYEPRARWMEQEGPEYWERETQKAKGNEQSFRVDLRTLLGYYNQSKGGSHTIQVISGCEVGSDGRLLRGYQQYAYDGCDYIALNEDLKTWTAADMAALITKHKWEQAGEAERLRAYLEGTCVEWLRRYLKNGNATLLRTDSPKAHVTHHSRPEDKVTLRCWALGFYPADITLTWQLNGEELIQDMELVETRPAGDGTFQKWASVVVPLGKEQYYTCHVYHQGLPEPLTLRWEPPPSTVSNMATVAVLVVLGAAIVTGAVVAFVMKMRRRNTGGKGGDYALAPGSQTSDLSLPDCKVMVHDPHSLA
T1 sequence (b2m, looked up): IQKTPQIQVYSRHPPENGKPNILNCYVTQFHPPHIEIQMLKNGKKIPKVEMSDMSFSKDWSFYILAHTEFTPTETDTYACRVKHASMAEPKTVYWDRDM
Assay: competitive inhibition of OVA peptide 1 binding to MHC-1 on DC2.4 cells, flow cytometry
Procedure: Murine dendritic cell line, DC2.4 cells, were detached from a dish, and suspended in 1.5 mL tubes at a concentration of 1.5×10⁵ cells per […] of PBS.

binding result: no binding (tested: 2.5 µg/mL)
B1: C-TRP2-9 (cysteine added to the N-terminus of residues 180 to 188 of mTRP2) (peptide)
peptide: CSVYDFFVWL
notes: 10-mer; N-terminal Cys plus mTRP2 180-188; Free peptide in the assay
